Data set [1] in a line: Excitation and emission spectra of Cy5, Dig-Cy5 and complex. The data set is classed as physicochemical. An excerpt:
To evaluate whether digoxygenation of Cy5 alters its fluorescence features, we compared the excitation and emission spectra of Cy5 and compared it with the spectra of the newly generated Dig-Cy5 and with Dig-Cy5 within a complex with bispecific antibodies. […] We conclude that Dig-Cy5 and -complexes can be applied for antibody-mediated targeting and in vivo imaging.

For data set [2], the system named is CD22 positive Raji and Ramos cells. Nature of the data set: FACS analysis with <CD22>-<DIG> and DIG-Cy5. The data set is classed as cell-based. The conditions noted are these: 5 μg/ml <CD22>-<DIG>, DIG-Cy5 66.4 nM. The method, then: For these analyses we used CD22 positive Raji and Ramos cells and the bispecific <CD22>-<DIG> antibody. 3×10^5 cells per well of a 96-well-plate were incubated with 5 μg/ml of the <CD22>-<DIG> antibody in FACS buffer (PBS containing 5% FCS). After washing the cells were incubated with DIG-Cy5 in a final concentration of 66.4 nM. After another washing step cells were analysed with the FACS canto II (BD Biosciences).
A general note: In flow cytometry, cells or beads pass a laser one at a time.

The subject of data set [3] is IGF1R expressing H322M tumor xenografts. Nature of the data set: Near Infrared Fluorescence Imaging (NIRF) in vivo, H322M xenografts. Also noted: species or system mice. The conditions noted are these: not complexed with antibody; some accumulation in the liver. On the procedure: To analyze if the specific antigen binding functionality of the antibody-complexes can be utilized to specifically deliver imaging reagents to tumor cells, we performed Near Infrared Fluorescence Imaging Studies (NIRF) in vivo. […] These xenografts were either expressing the antigen Her2 (KPL4 cells) or the antigen IGF1R (H322M cells). Subsequently NIRF imaging was performed by using the Maestro system from CRI. Animals were placed in a measuring chamber and the fluorescence was measured over a defined spectral wavelength array, depending on the dye. Spectral information of each pixel of the obtained image was analyzed by a special software which allows to separate different pre-defined spectra, e.g. autofluorescence and the signal of the dye. Theses separated specific signals were quantified by the Maestro software in order to compare different samples.
To analyze whether the <Her2>-<Dig>-Dig-siRNA complexes, and <IGF1R>-<Dig>-Dig-siRNA complexes mediate specific targeting of their payload towards antigen expressing cells not only in cell culture experiments but also in live animals, we made use of the fact that siRNAs can simultaneously be labeled with Dig as well as with fluorescence labels. […] The technology that we've applied for this task is Near Infrared Fluorescence Imaging (NIRF) in vivo. […]

In the next data set the test system is KPL-4 cells. The data set can be described thus: CellTiter Glo Luminescent Cell Viability Assay, doxorubicin. The data set is classed as cell-based. To be noted: Homo sapiens, KPL4, 48 hours. On the technique in general: ATP-based viability assays read luminescence as a measure of living cells.
Another data set has as its system H322M cells. The data set is described as above. The data set is classed as cell-based. To be noted: Homo sapiens, NCI-H322M, 48 hours.
Another data set has as its system MDA-MB-468 cells. The data set is described as above. The data set is classed as cell-based. The conditions noted are these: Homo sapiens, 48 hours.
The nature of data set [4]: SPR (BiaCore) of sequence-optimized anti-Dig modules. The data set is classed as binding. To be noted: FIG. 46 c, d, read-out: KD of anti-Dig module. The text has this: Further optimization of the humanized VH and VL sequences of the anti-digoxygenin antibody was applied to generate modules with even higher affinity towards digoxygenin. Based upon the experimentally determined as well as in-silico calculated predicted structures (see above, based upon structure modeling without experimental structure determination), we identified three positions in which alterations might affect affinity. These were located at (Kabat positions) Ser49, Ile57 and Ala60 of the VH domain (FIG. 46). Replacement of the amino acid VHSer49 with Ala, VHIle57 with Ala and of VHAla60 with Pro generated antibody derivatives with sequences that are listed as SEQ ID NO 36 and SEQ ID NO 37. […] The relevance of these positions was thereafter confirmed by inspecting the experimentally determined structure of the dig-binding variable region. The digoxygenin binding module with improved affinity can be applied as hapten-binding entity for various bi- and multispecific antibody derivatives.
For that, binding properties of the recombinant <Dig> derivatives were analyzed by surface plasmon resonance (SPR) technology using a Biacore T100 or Biacore 3000 instrument (GE Healthcare Bio-Sciences AB, Uppsala). This system is well established for the study of molecule interactions. […]
For orientation: SPR reads the build-up and loss of mass on a sensor chip optically.

The target of another data set is DIG-siRNA2349. The data set can be described thus: SPR binding to DIG-siRNA2349. To be noted: analyte DIG-siRNA2349; replicate lines; listed as <DIG>hu2. The method, then: For that, binding properties of the recombinant <Dig> derivatives were analyzed by surface plasmon resonance (SPR) technology using a Biacore T100 or Biacore 3000 instrument (GE Healthcare Bio-Sciences AB, Uppsala). This system is well established for the study of molecule interactions. It allows a continuous real-time monitoring of ligand/analyte bindings and thus the determination of association rate constants (ka), dissociation rate constants (kd), and equilibrium constants (KD) in various assay settings. SPR-technology is based on the measurement of the refractive index close to the surface of a gold coated biosensor chip. Changes in the refractive index indicate mass changes on the surface caused by the interaction of immobilized ligand with analyte injected in solution. If molecules bind to immobilized ligand on the surface the mass increases, in case of dissociation the mass decreases. To perform the binding studies capturing anti-human IgG antibody was immobilized on the surface of a CM5 biosensor chip using amine-coupling chemistry. Flow cells were activated with a 1:1 mixture of 0.1 M N-hydroxysuccinimide and 0.1 M 3-(N,N-dimethylamino)propyl-N-ethylcarbodiimide at a flow rate of 5 μl/min. […] A reference control flow cell was treated in the same way but with vehicle buffers only instead of the capturing antibody. Surfaces were blocked with an injection of 1 M ethanolamine/HCl pH 8.5. To compare the binding of the humanized protein variants with that of the murine <Dig> IgG from the original hybridoma 19-11, capturing anti-mouse IgG antibody was immobilized on the surface of a CM5 biosensor chip in the same fashion as described above for the anti-human IgG antibody. To evaluate the functionality of the recombinant <Dig> derivatives, binding of the recombinant hu<Dig> modules, incl. (i) humanized IgG, (ii) fusion proteins harboring hu<Dig> scFv or (iii) disulfide-stabilized scFvs was assayed with different digoxygenated antigens The resulting binding affinities were compared to the binding of the murine ‘wildtype’ DIG-IgG from which the recombinant humanized modules were derived. […]

For another data set, the target named is Eg5-siRNA-DIG. Nature of the data set: SPR (Biacore) binding to mono-digoxygenated siRNA. The conditions noted are these: 25° C.
The next data set deals with DIG-Myoglobin. Nature of the data set: SPR binding to mono-digoxygenated protein DIG-myoglobin. To be noted: analyte DIG-Myoglobin; replicate lines; listed as <DIG>hu2. On the procedure: For that, binding properties of the recombinant <Dig> derivatives were analyzed by surface plasmon resonance (SPR) technology using a Biacore T100 or Biacore 3000 instrument (GE Healthcare Bio-Sciences AB, Uppsala). This system is well established for the study of molecule interactions. It allows a continuous real-time monitoring of ligand/analyte bindings and thus the determination of association rate constants (ka), dissociation rate constants (kd), and equilibrium constants (KD) in various assay settings. SPR-technology is based on the measurement of the refractive index close to the surface of a gold coated biosensor chip. Changes in the refractive index indicate mass changes on the surface caused by the interaction of immobilized ligand with analyte injected in solution. If molecules bind to immobilized ligand on the surface the mass increases, in case of dissociation the mass decreases. To perform the binding studies capturing anti-human IgG antibody was immobilized on the surface of a CM5 biosensor chip using amine-coupling chemistry. Flow cells were activated with a 1:1 mixture of 0.1 M N-hydroxysuccinimide and 0.1 M 3-(N,N-dimethylamino)propyl-N-ethylcarbodiimide at a flow rate of 5 μl/min. […] A reference control flow cell was treated in the same way but with vehicle buffers only instead of the capturing antibody. Surfaces were blocked with an injection of 1 M ethanolamine/HCl pH 8.5. To compare the binding of the humanized protein variants with that of the murine <Dig> IgG from the original hybridoma 19-11, capturing anti-mouse IgG antibody was immobilized on the surface of a CM5 biosensor chip in the same fashion as described above for the anti-human IgG antibody. To evaluate the functionality of the recombinant <Dig> derivatives, binding of the recombinant hu<Dig> modules, incl. (i) humanized IgG, (ii) fusion proteins harboring hu<Dig> scFv or (iii) disulfide-stabilized scFvs was assayed with different digoxygenated antigens The resulting binding affinities were compared to the binding of the murine ‘wildtype’ DIG-IgG from which the recombinant humanized modules were derived.
Another SPR study was performed in which the binding affinity of <DIG>-hu2, IGF1R-DIG and <DIG> M-19-11 was compared in terms of binding to the mono-digoxygenated protein DIG-myoglobin.

In the next data set the target is Eg5-siRNA-(2×)DIG. The data set can be described thus: SPR (Biacore) binding to bi-digoxygenated siRNA. To be noted: 25° C., read-out: KD, binding of siRNA-(2x)DIG.

“And” between values parts separate entries of the source, which are not always exact repeats. Equal entries are not always repeated.

Description for Eg5-siRNA-(2×)DIG: (§1) For that, binding properties of the recombinant <Dig> derivatives were analyzed by surface plasmon resonance (SPR) technology using a Biacore T100 or Biacore 3000 instrument (GE Healthcare Bio-Sciences AB, Uppsala). […] To perform the binding studies capturing anti-human IgG antibody was immobilized on the surface of a CM5 biosensor chip using amine-coupling chemistry. Flow cells were activated with a 1:1 mixture of 0.1 M N-hydroxysuccinimide and 0.1 M 3-(N,N-dimethylamino)propyl-N-ethylcarbodiimide at a flow rate of 5 μl/min. […] A reference control flow cell was treated in the same way but with vehicle buffers only instead of the capturing antibody. Surfaces were blocked with an injection of 1 M ethanolamine/HCl pH 8.5. […]
(§2) Anti-mouse IgG antibody was immobilized on the surface of a CM5 biosensor chip in the same fashion as described above. […] The samples to be analyzed were diluted in HBS-P (10 mM HEPES, pH 7.4, 150 mM NaCl, 0.005% Surfactant P20) and injected at a flow rate of 5 μl/min. […] Signals were detected at a rate of one signal per second.
(§3) The samples to be analyzed were diluted in HBS-P and injected at a flow rate of 5 μl/min. […]
Description for Eg5-siRNA-DIG: as §1, §2, §3
Description for H322M cells: (§4) Then, cell viability was assessed by applying the CellTiter Glo Luminescent Cell Viability Assay (Promega, Madison, Wis.).
Description for KPL-4 cells: as §4
Description for MDA-MB-468 cells: as §4
These experiments included an additional breast tumor cell line MDA-MB-468. […] Thereafter, cell viability was assessed by applying the CellTiter Glo Luminescent Cell Viability Assay (Promega, Madison, Wis.).

Consider `CCN1c2ccc(S(=O)(=O)O)cc2C(C)(C)C1/C=C/C=C/C=C1\N(CCCCCC(=O)NCCNC(=O)CO[C@H]2CC[C@@]3(C)[C@H](CC[C@@H]4[C@@H]3C[C@@H](O)[C@]3(C)[C@@H](C5=CC(=O)OC5)CC[C@]43O)C2)c2ccc(S(=O)(=O)O)cc2C1(C)C` (stereo partly drawn) [Dig-Cy5], for which, in data set [1], the “Emission wavelength (max.)” value was “at 670 nm” and the Excitation wavelength is 575-605 nm. Further, the “binding to Raji or Ramos cells (FACS)” value in data set [2] is “hardly any binding”. Moreover, the “tumor specific fluorescence (NIRF) without antibody” value in [3] is given as “no tumor specific fluorescence”.
A word on the IC50: it is the concentration at which inhibition is half-maximal. Take `COc1cccc2c1C(=O)c1c(O)c3c(c(O)c1C2=O)C[C@@](O)(C(=O)CO)C[C@@H]3O[C@H]1C[C@H](N)[C@H](O)[C@H](C)O1` [doxorubicin, Doxorubicin]: the IC50 in the data set with KPL-4 cells turned out to be 2600 nM; in the data set with H322M cells it was 25000 nM; in the data set on MDA-MB-468 cells it was 17000 nM.

B1: humanized DIG-IgG: recombinant humanized anti-digoxigenin IgG; Seq. ID. NO. 3-6 (antibody, V domains shown)
VH: QVQLVESGGGLVKPGGSLRLSCAASGFTFSDYAMSWIRQAPGKGLEWVSSINIGATYIYYADSVKGRFTISRDNAKNSLYLQMNSLRAEDTAVYYCARPGSPYEYDKAYYSMAYWGQGTTVTVSS
VL: DIQMTQSPSSLSASVGDRVTITCRASQDIKNYLNWYQQKPGKAPKLLIYYSSTLLSGVPSRFSGSGSGTDFTLTISSLQPEDFATYYCQQSITLPPTFGGGTKVEIKR
notes: recombinant humanized anti-digoxigenin IgG; ID; NO; 3-6
A word on the Kd: it is the free concentration of one partner at which half of the binding sites on the other are occupied at equilibrium, for simple one-to-one binding. For B1, the Kd in data set [4] is 12 nM; on DIG-siRNA2349, 14.5 nM and 15.6 nM; at Eg5-siRNA-DIG, 12 nM; on Eg5-siRNA-(2×)DIG, 0.008 nM. Further, the ka in the data set with DIG-siRNA2349 was 645000 M⁻¹ s⁻¹ and 628000 M⁻¹ s⁻¹; in the data set with DIG-Myoglobin, 620000 M⁻¹ s⁻¹ and 749000 M⁻¹ s⁻¹. The kd at DIG-siRNA2349 is 0.00937 s⁻¹ and 0.0098 s⁻¹; at DIG-Myoglobin it was 0.00982 s⁻¹ and 0.00881 s⁻¹.

The values above are taken from US9050375B2, “Bi-specific digoxigenin binding antibodies” (priority 2009, dated 2015).
